Earlier results in publication PMC4388261.

Molecular target: Glu35 (UniProt position 53, CAAKFESNFNT)
Details: not stated (wild-type HEWL; the literature range pools several studies)

Hen egg-white lysozyme (HEWL, lysozyme C) (Gallus gallus)
pKa: 6.0–6.8
